Assay [1] addresses Zaire ebolavirus (ZEBOV) GP (Zaire ebolavirus) (UniProt Q05320). Put plainly: cell-based or functional assay.
Assay [2] addresses T1, Zaire ebolavirus (ZEBOV) GP (Zaire ebolavirus, UniProt Q05320 33-676).
T1 construct: whole, on cells; also called Zaire GP
T1 sequence: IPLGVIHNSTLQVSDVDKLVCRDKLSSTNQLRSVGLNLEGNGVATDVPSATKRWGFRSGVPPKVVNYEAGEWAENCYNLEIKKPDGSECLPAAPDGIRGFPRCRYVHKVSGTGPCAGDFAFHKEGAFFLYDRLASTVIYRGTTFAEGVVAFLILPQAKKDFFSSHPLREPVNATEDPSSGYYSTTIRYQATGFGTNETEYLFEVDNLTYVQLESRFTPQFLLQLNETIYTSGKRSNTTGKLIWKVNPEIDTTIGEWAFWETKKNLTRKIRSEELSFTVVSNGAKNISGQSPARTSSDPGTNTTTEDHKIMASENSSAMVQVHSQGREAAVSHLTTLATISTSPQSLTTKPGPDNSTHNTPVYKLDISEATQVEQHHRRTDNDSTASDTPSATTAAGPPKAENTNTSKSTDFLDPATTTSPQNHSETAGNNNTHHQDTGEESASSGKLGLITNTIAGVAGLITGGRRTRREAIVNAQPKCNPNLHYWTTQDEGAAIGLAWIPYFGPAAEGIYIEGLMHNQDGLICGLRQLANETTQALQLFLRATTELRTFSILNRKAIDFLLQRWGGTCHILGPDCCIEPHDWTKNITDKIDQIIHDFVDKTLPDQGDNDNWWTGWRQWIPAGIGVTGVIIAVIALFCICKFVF
The experiment in a line: flow cytometry on infected Vero cells (FIG. 15).

As to monoclonal antibody KZ52, in assay [1], the neutralization of Zaire GP-pseudotyped VSV on 293 cells is 90%.

B1: monoclonal antibody 16F6 (murine IgG1) (antibody, V domains shown)
VH: EVQLVESGGGLVTPGGSLKLSCAASGFAFNYYDMFWVRQNTEKRLEWVAYINSGGGNTYYPDTVKGRFTISRDNAKKTLFLQMSSLRSEDTAMYYCARQLYGNSFFDYWGQGTSLTVSA
VL: DIVMTQSHKFMSTSVGDRVTITCKASQDVTTAVAWYQQKPGHSPKLLIYWASTRHTGVPDRFTGSGSGTDFTLTLNSVQAEDLALYYCQQHYSTPLTFGAGTKLELK
notes: also called mAb 16F6; MAb 16F6
With B1, the binding result in assay [2] is recorded as “no binding”.

Values taken from patent publication US20120164153A1 (GOVERNMENT OF THE UNITED STATES AS REPRESENTED BY THE …, published 2012).
